Measured values: the supplement of paper PMC10065799, “High-throughput profiling of sequence recognition by tyrosine kinases and SH2 domains using bacterial peptide display” (eLife, 2023)

Columns and labels:
c-Abl (mouse) = experiment: phosphorylation enrichment, bacterial display (enrichment ratio); higher = better substrate or ligand; peptides without Tyr show the background
EPHB2 = EPHB2 (UniProt P29323); experiment: as above
AncSZ = experiment: as above
FGFR1 = FGFR1 (UniProt P11362); experiment: as above
c-Src = experiment: as above
EPHB1 = EPHB1 (UniProt P54762); experiment: as above
Fer (mouse) = experiment: as above
FGFR3 = FGFR3 (UniProt P22607); experiment: as above
Fes = Fes (UniProt P07332); experiment: as above
Jak2 = Jak2 (UniProt O60674); experiment: as above
Hck = Hck (UniProt P08631); experiment: as above
MERTK = MERTK (UniProt Q12866); experiment: as above
Fyn = Fyn (UniProt P06241); experiment: as above
Grb2 SH2 = Grb2 SH2 (UniProt P62993); experiment: SH2 binding enrichment of the phosphorylated peptide, bacterial display (enrichment ratio); higher = better substrate or ligand; peptides without Tyr show the background
SHP2-C SH2 = experiment: as above
c-Src SH2 = experiment: as above
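Throughout, for SH2 binding enrichment of the phosphorylated peptide, bacterial display: peptide library displayed on the E. coli surface as eCPX fusions, selected cells deep-sequenced, score is each peptide's frequency after selection divided by its frequency in the input.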
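Throughout, for phosphorylation enrichment, bacterial display: 11-residue human phosphosite peptides and single-mutation variants displayed on the E. coli surface, counted by deep sequencing, each peptide's frequency after selection divided by its frequency in the unselected input library; frequency after pTyr selection over input frequency; kinase dosed for 20-30% of maximal phosphorylation in three min.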

Hck, sequence (P08631 whole entry, looked up): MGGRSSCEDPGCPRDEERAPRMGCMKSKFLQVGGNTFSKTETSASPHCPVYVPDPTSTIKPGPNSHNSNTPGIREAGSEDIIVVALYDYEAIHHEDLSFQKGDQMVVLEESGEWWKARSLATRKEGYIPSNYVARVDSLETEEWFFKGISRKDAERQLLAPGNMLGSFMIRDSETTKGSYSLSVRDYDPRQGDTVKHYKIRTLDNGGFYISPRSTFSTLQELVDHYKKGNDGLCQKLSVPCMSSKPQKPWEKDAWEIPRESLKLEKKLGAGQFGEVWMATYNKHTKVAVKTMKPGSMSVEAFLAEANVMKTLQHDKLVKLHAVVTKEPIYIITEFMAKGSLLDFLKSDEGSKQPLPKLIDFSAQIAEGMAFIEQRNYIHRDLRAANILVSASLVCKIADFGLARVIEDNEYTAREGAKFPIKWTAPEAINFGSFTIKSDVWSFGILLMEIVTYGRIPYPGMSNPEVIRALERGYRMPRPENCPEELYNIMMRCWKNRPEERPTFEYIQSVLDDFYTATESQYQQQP
MERTK, sequence (Q12866 whole entry, looked up): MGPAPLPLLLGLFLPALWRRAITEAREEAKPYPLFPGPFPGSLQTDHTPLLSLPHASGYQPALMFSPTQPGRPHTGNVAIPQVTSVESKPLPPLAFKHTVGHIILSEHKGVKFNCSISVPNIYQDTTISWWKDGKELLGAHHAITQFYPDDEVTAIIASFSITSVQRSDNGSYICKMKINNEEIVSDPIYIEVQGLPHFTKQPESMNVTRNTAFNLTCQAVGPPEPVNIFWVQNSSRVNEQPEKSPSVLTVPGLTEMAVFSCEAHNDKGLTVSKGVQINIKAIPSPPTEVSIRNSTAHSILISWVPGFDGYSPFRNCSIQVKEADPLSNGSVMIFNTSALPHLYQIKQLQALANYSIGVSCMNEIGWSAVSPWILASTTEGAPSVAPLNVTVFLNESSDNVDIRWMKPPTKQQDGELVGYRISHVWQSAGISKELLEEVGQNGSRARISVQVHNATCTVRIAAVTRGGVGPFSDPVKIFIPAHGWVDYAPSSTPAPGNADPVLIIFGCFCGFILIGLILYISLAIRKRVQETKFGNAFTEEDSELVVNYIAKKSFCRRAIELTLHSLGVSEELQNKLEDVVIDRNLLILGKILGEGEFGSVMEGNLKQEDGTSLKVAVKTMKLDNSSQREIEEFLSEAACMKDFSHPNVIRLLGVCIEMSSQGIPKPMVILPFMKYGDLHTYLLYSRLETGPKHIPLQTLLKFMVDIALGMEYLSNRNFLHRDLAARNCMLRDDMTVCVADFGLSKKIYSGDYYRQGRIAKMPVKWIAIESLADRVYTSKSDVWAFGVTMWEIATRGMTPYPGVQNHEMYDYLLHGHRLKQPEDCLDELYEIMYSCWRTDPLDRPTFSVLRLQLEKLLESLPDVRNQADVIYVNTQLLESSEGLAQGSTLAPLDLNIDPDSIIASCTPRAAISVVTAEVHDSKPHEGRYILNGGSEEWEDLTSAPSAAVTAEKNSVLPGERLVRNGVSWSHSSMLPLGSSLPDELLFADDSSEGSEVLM
EPHB1, sequence (P54762 whole entry, looked up): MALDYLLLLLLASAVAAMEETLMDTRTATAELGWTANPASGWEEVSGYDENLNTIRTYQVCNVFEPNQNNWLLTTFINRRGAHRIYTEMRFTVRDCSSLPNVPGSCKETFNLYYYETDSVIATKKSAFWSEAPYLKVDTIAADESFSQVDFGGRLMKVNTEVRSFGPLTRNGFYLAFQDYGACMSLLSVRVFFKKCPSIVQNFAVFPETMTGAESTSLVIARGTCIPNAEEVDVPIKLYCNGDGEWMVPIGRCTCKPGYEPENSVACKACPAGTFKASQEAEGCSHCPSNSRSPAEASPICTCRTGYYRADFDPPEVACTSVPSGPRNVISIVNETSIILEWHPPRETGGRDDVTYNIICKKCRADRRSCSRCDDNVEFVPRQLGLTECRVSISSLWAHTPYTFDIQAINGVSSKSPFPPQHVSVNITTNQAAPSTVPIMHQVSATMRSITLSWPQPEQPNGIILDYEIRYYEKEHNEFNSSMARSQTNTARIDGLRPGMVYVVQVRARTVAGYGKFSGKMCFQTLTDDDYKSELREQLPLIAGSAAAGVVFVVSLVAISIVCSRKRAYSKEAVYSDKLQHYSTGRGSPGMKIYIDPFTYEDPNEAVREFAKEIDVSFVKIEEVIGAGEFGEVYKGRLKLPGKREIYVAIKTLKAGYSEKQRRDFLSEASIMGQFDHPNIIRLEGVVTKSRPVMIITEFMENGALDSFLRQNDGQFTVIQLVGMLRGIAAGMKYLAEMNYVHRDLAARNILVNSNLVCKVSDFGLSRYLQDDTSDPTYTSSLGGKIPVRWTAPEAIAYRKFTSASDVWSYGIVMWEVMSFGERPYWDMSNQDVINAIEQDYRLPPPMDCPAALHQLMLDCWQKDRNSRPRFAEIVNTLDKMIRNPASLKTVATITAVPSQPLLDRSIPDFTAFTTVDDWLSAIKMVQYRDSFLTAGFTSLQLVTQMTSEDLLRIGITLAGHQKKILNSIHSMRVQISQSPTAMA
EPHB2, sequence (P29323 whole entry, looked up): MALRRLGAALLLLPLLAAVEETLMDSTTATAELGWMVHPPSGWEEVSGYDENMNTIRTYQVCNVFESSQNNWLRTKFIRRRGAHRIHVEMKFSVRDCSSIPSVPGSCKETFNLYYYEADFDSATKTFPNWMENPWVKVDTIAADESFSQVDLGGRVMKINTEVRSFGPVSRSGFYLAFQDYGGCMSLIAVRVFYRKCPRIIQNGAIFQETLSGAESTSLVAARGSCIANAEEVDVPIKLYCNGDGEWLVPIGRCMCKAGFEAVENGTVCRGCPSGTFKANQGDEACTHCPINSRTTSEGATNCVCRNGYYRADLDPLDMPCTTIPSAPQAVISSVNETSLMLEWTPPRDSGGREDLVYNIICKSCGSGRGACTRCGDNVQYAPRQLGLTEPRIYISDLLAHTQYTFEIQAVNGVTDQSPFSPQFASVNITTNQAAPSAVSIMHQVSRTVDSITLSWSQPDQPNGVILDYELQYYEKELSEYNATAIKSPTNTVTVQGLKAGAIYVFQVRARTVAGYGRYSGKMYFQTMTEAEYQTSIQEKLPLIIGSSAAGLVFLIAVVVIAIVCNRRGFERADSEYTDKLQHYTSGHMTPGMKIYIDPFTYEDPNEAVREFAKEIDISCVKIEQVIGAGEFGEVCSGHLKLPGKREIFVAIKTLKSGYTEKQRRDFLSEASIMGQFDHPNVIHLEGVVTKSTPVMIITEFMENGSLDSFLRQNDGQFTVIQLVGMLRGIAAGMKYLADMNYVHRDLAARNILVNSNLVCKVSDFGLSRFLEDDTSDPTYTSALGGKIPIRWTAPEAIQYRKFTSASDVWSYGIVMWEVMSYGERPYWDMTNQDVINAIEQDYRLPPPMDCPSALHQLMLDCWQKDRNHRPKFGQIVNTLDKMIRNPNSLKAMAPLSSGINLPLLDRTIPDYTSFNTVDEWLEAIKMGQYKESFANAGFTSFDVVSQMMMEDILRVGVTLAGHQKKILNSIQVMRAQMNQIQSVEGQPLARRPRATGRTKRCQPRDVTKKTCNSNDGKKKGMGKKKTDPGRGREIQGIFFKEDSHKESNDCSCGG
Fes, sequence (P07332 whole entry, looked up): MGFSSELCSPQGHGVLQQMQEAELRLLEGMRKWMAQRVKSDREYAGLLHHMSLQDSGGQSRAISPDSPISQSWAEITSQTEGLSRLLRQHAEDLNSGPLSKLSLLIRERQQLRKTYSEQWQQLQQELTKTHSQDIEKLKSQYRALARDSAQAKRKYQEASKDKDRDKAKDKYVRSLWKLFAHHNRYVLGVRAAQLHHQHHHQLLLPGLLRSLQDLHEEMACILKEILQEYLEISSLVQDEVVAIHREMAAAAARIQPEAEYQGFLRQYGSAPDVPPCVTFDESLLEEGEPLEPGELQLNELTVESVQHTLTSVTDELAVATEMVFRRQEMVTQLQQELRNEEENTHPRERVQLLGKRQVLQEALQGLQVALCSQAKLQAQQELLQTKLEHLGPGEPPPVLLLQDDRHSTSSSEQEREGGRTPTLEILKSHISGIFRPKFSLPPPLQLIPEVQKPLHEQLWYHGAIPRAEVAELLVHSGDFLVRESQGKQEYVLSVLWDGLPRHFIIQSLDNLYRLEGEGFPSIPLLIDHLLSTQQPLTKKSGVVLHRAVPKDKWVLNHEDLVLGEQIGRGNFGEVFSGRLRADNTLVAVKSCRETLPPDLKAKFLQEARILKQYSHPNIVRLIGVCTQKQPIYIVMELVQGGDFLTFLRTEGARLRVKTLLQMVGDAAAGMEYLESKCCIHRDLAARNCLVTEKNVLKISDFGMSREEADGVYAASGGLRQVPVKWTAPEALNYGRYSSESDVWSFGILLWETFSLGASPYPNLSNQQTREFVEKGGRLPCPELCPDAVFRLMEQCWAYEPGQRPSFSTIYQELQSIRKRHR
Fyn, sequence (P06241 whole entry, looked up): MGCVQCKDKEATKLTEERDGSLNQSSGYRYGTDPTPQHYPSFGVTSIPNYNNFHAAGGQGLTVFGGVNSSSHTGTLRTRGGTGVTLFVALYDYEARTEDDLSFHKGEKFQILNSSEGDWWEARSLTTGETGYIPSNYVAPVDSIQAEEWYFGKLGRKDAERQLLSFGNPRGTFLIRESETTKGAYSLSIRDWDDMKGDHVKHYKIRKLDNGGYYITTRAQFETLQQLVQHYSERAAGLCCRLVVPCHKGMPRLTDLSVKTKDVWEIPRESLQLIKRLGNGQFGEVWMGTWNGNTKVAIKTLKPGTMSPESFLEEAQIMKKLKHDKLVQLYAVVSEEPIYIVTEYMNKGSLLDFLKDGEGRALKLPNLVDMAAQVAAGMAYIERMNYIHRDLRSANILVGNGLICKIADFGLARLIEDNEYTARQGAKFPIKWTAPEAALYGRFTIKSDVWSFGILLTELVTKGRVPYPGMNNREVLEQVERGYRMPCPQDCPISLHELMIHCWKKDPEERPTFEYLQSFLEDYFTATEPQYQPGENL

SH2 binding enrichment (Grb2 SH2) | SH2 binding enrichment (SHP2-C SH2) | SH2 binding enrichment (c-Src SH2) | Sequence | phosphorylation enrichment (c-Abl (mouse)) | phosphorylation enrichment (EPHB2) | phosphorylation enrichment (AncSZ) | phosphorylation enrichment (FGFR1) | phosphorylation enrichment (c-Src) | phosphorylation enrichment (EPHB1) | phosphorylation enrichment (Fer (mouse)) | phosphorylation enrichment (FGFR3) | phosphorylation enrichment (Fes) | phosphorylation enrichment (Jak2) | phosphorylation enrichment (Hck) | phosphorylation enrichment (MERTK) | phosphorylation enrichment (Fyn)
1.1 | 0.847 | 0.646 | ARKCKYFKKHE [NFIX_Y40_R38C] | 0.75 | 0.403 | 0.619 | 0.428 | 0.545 | 0.452 | 0.443 | 0.565 | 0.974 | 0.596 | 0.48 | 0.486 | 0.463
1.2 | 1.03 | 0.775 | AKKVFYVIETR [SHH_Y253] | 0.627 | 0.582 | 1.12 | 0.542 | 0.412 | 0.569 | 0.401 | 0.765 | 1.26 | 1.01 | 0.422 | 0.361 | 0.465
0.848 | 0.749 | 0.413 | FLKDVYVDSKD [NDUFAF4_Y69] | 0.66 | 0.512 | 1.11 | 0.488 | 0.471 | 0.459 | 0.557 | 0.731 | 0.983 | 0.855 | 0.707 | 0.471 | 0.48
0.805 | 0.566 | 0.435 | FDDIAHIRKTL [PIK3CA_Y1021_Y1021H] | 0.611 | 0.529 | 0.688 | 0.529 | 0.389 | 0.51 | 0.433 | 0.515 | 0.844 | 0.854 | 0.553 | 0.416 | 0.538
0.767 | 0.753 | 0.44 | ASTDYYKRGDF [PDHA1_Y243] | 0.559 | 0.409 | 0.685 | 0.436 | 0.5 | 0.287 | 0.321 | 0.501 | 0.71 | 0.754 | 0.465 | 0.369 | 0.368
0.678 | 0.783 | 0.828 | HHTNEYEFDEL [TGM1_Y134_D132N_YF] | 0.624 | 1.01 | 1.56 | 0.702 | 0.939 | 0.691 | 0.558 | 0.832 | 1.42 | 0.884 | 0.719 | 0.607 | 1.13
0.77 | 0.661 | 0.491 | EITSHYRHLLR [ZBTB46_Y14] | 0.733 | 0.443 | 0.733 | 0.444 | 0.475 | 0.417 | 0.571 | 0.517 | 0.819 | 0.601 | 0.389 | 0.392 | 0.319
0.871 | 1.39 | 0.469 | TKGNEYVFRVA | 0.537 | 0.565 | 0.826 | 0.519 | 0.489 | 0.415 | 0.386 | 0.619 | 0.82 | 0.549 | 0.511 | 0.452 | 0.496
1.25 | 0.815 | 0.399 | LQTYRYHGLSM [PDHA1_Y289_H292L] | 0.564 | 0.746 | 0.927 | 0.749 | 0.471 | 0.673 | 0.572 | 0.915 | 1.13 | 0.576 | 0.648 | 0.443 | 0.703
0.838 | 0.731 | 0.448 | SVICTYSPALN [TP53_Y126_T123I] | 0.97 | 0.673 | 1.36 | 0.61 | 0.58 | 0.59 | 0.651 | 0.779 | 1.44 | 1.03 | 0.523 | 0.438 | 0.546
0.837 | 0.506 | 0.364 | PVRIAYGRPRG [SUGP2_Y985_D986G] | 0.5 | 0.493 | 1.01 | 0.449 | 0.816 | 0.643 | 0.61 | 0.64 | 0.523 | 1.18 | 1.25 | 0.606 | 0.639
1.12 | 0.916 | 0.808 | AEPNIYQEKLS [USP54_Y1233_D1231N] | 0.802 | 0.462 | 0.763 | 0.442 | 0.679 | 0.401 | 0.34 | 0.505 | 0.748 | 0.948 | 0.778 | 0.339 | 0.727

The next lines start with the sequence.

Sequence | SH2 binding enrichment (Grb2 SH2) | SH2 binding enrichment (SHP2-C SH2) | SH2 binding enrichment (c-Src SH2) | phosphorylation enrichment (c-Abl (mouse)) | phosphorylation enrichment (EPHB2) | phosphorylation enrichment (AncSZ) | phosphorylation enrichment (FGFR1) | phosphorylation enrichment (c-Src) | phosphorylation enrichment (EPHB1) | phosphorylation enrichment (Fer (mouse)) | phosphorylation enrichment (FGFR3) | phosphorylation enrichment (Fes) | phosphorylation enrichment (Jak2) | phosphorylation enrichment (Hck) | phosphorylation enrichment (MERTK) | phosphorylation enrichment (Fyn)
MKTISYETLIA [DOCK10_Y1350] | 0.747 | 0.792 | 1.97 | 0.526 | 0.474 | 0.847 | 0.472 | 0.379 | 0.53 | 0.497 | 0.622 | 0.926 | 0.927 | 0.501 | 0.384 | 0.431
WLFFRYLAIGC [ATP2A2_Y836] | 0.826 | 0.573 | 0.36 | 1.09 | 0.496 | 1.51 | 0.503 | 0.432 | 0.633 | 0.573 | 0.798 | 1.55 | 1.49 | 0.462 | 0.482 | 0.477
AGADGYDYLAP [FOXL2_Y186_G187D] | 0.89 | 0.478 | 4.34 | 0.655 | 0.587 | 3.5 | 0.611 | 0.388 | 0.585 | 0.62 | 0.783 | 0.99 | 0.997 | 0.903 | 0.647 | 0.534
GSCQEYTGAPF [NAXD_Y85_G81S_YF] | 0.946 | 0.822 | 0.596 | 0.638 | 0.496 | 1.16 | 0.536 | 0.564 | 0.628 | 0.466 | 0.798 | 1.04 | 0.98 | 0.509 | 0.424 | 0.422
YSMGCYEISLG [HMGCL_Y198] | 0.551 | 0.658 | 0.582 | 1.08 | 1.18 | 2.12 | 0.69 | 2.35 | 1.56 | 2.77 | 0.817 | 1.47 | 1.38 | 1.22 | 2.66 | 2.15
EKLQKYFRKNP [EHHADH_Y682_Q685K_YF] | 0.914 | 0.802 | 0.549 | 0.763 | 0.615 | 0.613 | 0.473 | 0.613 | 0.693 | 0.514 | 0.553 | 0.895 | 0.991 | 0.646 | 0.567 | 0.527
SGETKYNPTEA [NBEAL2_Y2748_E2747K] | 0.791 | 0.533 | 0.579 | 0.624 | 0.476 | 0.767 | 0.502 | 0.537 | 0.558 | 0.539 | 0.594 | 0.868 | 0.848 | 0.613 | 0.449 | 0.459
EPFKVYRIVPE [IRF8_Y110_YF] | 0.774 | 0.511 | 0.506 | 0.43 | 0.454 | 0.572 | 0.468 | 0.588 | 0.428 | 0.424 | 0.485 | 0.698 | 0.526 | 0.4 | 0.453 | 0.462
PDSVDYPKKGF [CTSK_Y121_R122P_YF] | 0.872 | 0.486 | 0.531 | 2.12 | 1.13 | 1.75 | 1.12 | 1.52 | 1.48 | 1.52 | 1.05 | 1.78 | 1.97 | 1.15 | 1.31 | 1.17
GSLEDYVRETN [GIMAP6_Y176] | 0.785 | 0.656 | 0.541 | 0.619 | 0.573 | 1 | 0.501 | 0.424 | 0.438 | 0.398 | 0.661 | 0.869 | 0.724 | 0.54 | 0.442 | 0.468
SQSPHYFRSGQ [GPATCH8_Y1038_R1043Q] | 0.869 | 0.533 | 0.484 | 0.456 | 0.316 | 0.551 | 0.366 | 0.427 | 0.435 | 0.359 | 0.405 | 0.524 | 0.538 | 0.325 | 0.419 | 0.345
GEPLSYTRFSL [TFRC_Y20] | 0.901 | 0.519 | 0.558 | 1 | 0.455 | 0.833 | 0.452 | 0.83 | 0.438 | 0.554 | 0.545 | 0.935 | 2.21 | 0.52 | 0.567 | 0.443
IDNKMYDPKMN [ENPP1_Y280] | 1.17 | 0.623 | 0.578 | 0.41 | 0.362 | 0.699 | 0.553 | 0.344 | 0.369 | 0.355 | 0.471 | 0.729 | 0.385 | 0.478 | 0.304 | 0.404
RRSKMYLKTRS [LPL_Y329_S325R] | 0.981 | 0.647 | 0.319 | 0.578 | 0.845 | 0.728 | 0.599 | 1.03 | 0.448 | 0.514 | 0.571 | 0.709 | 0.889 | 0.602 | 0.659 | 0.708
ENAGFYFRVSA | 0.646 | 0.738 | 0.359 | 0.831 | 0.704 | 1.45 | 0.841 | 0.324 | 0.794 | 0.724 | 1.1 | 1.58 | 1.22 | 0.62 | 0.44 | 0.45
VVSMNYRVGAL [BCHE_Y174] | 0.475 | 0.771 | 0.446 | 0.556 | 0.445 | 0.703 | 0.524 | 0.342 | 0.511 | 0.333 | 0.534 | 0.802 | 0.722 | 0.43 | 0.362 | 0.336
LAETSYVKVLE [MAGEA1_Y276] | 0.94 | 7 | 1.69 | 0.616 | 0.471 | 0.817 | 0.53 | 0.512 | 0.499 | 0.472 | 0.532 | 1.03 | 0.888 | 0.473 | 0.452 | 0.479
